Drawing on US20250346663A1 (published 2025), this text covers Kd for two molecules.

A word on the Kd: it is the constant that tells how readily two partners part at equilibrium. High values mean lower affinity, low ones higher affinity.

In assay [1] the target is Gen2 leptin. Nature of the assay: BLI; sample PP5871-021. On the technique in general: In BLI a coated tip is dipped into the sample, and binding shifts an interference pattern.
Assay [2] deals with mbp_G4S_hlep(22-167)V94M (MBP-(G4S)-human leptin V94M-6His). Nature of the assay: BLI; sample PP2054-095.

B1: human leptin receptor (Fc-tagged dimeric) (Fc fusion)
chain: FNLSYPITPWRFKLSCMPPNSTYDYFLLPAGLSKNTSNSNGHYETAVEPKFNSSGTHFSNLSKTTFHCCFRSEQDRNCSLCADNIEGKTFVSTVNSLVFQQIDANWNIQCWLKGDLKLFICYVESLFKNLFRNYNYKVHLLYVLPEVLEDSPLVPQKGSFQMVHCNCSVHECCECLVPVPTAKLNDTLLMCLKITSGGVIFQSPLMSVQPINMVKPDPPLGLHMEITDDGNLKISWSSPPLVPFPLQYQVKYSENSTTVIREADKIVSATSLLVDSILPGSSYEVQVRGKRLDGPGIWSDWSTPRVFTTQDVIYFPPKILTSVGSNVSFHCIYKKENKIVPSKEIVWWMNLAEKIPQSQYDVVSDHVSKVTFFNLNETKPRGKFTYDAVYCCNEHECHHRYAELYVIDVNINISCETDGYLTKMTCRWSTSTIQSLAESTLQLRYHRSSLYCSDIPSIHPISEPKDCYLQSDGFYECIFQPIFLLSGYTMWIRINHSLGSLDSPPTCVLPDSVVKPLPPSSVKAEITINIGLLKISWEKPVFPENNLQFQIRYGLSGKEVQWKMYEVYDAKSKSVSLPVPDLCAVYAVQVRCKRLDGLGYWSNWSNPAYTVVMDIKVPMRGPEFWRIINGDTMKKEKNVTLLWKPLMKNDSLCSVQRYVINHHTSCNGTWSEDVGNHTKFTFLWTEQAHTVTVLAINSIGASVANFNLTFSWPMSKVNIVQSLSAYPLNSSCVIVSWILSPSDYKLMYFIIEWKNLNEDGEIKWLRISSSVKKYYIHDHFIPIEKYQFSLYPIFMEGVGKPKIINSFTQDDIEKHQSD
On to B1, for which binding in assay [1] was put at a Kd of 1.41 nM.

B2: human FC-tagged dimeric leptin receptor (Fc fusion)
chain: FNLSYPITPWRFKLSCMPPNSTYDYFLLPAGLSKNTSNSNGHYETAVEPKFNSSGTHFSNLSKTTFHCCFRSEQDRNCSLCADNIEGKTFVSTVNSLVFQQIDANWNIQCWLKGDLKLFICYVESLFKNLFRNYNYKVHLLYVLPEVLEDSPLVPQKGSFQMVHCNCSVHECCECLVPVPTAKLNDTLLMCLKITSGGVIFQSPLMSVQPINMVKPDPPLGLHMEITDDGNLKISWSSPPLVPFPLQYQVKYSENSTTVIREADKIVSATSLLVDSILPGSSYEVQVRGKRLDGPGIWSDWSTPRVFTTQDVIYFPPKILTSVGSNVSFHCIYKKENKIVPSKEIVWWMNLAEKIPQSQYDVVSDHVSKVTFFNLNETKPRGKFTYDAVYCCNEHECHHRYAELYVIDVNINISCETDGYLTKMTCRWSTSTIQSLAESTLQLRYHRSSLYCSDIPSIHPISEPKDCYLQSDGFYECIFQPIFLLSGYTMWIRINHSLGSLDSPPTCVLPDSVVKPLPPSSVKAEITINIGLLKISWEKPVFPENNLQFQIRYGLSGKEVQWKMYEVYDAKSKSVSLPVPDLCAVYAVQVRCKRLDGLGYWSNWSNPAYTVVMDIKVPMRGPEFWRIINGDTMKKEKNVTLLWKPLMKNDSLCSVQRYVINHHTSCNGTWSEDVGNHTKFTFLWTEQAHTVTVLAINSIGASVANFNLTFSWPMSKVNIVQSLSAYPLNSSCVIVSWILSPSDYKLMYFIIEWKNLNEDGEIKWLRISSSVKKYYIHDHFIPIEKYQFSLYPIFMEGVGKPKIINSFTQDDIEKHQSD
In assay [2], B2 had a Kd of 0.93 nM.
